B1: Protein AMBP (protein)
chain: GPVPTPPDNIQVQENFNISRIYGKWYNLAIGSTCPWLKKIMDRMTVSTLVLGEGATEAEISMTSTRWRKGVCEETSGAYEKTDTDGKFLYHKSKWNITMESYVVHTNYDEYAIFLTKKFSRHHGPTITAKLYGRAPQLRETLLQDFRVVAQGVGIPEDSIFTMADRGECVPGEQEPEPILIPRVRRAVLPQEEEGSGGGQLVTEVTKKEDSCQLGYSAGPCMGMTSRYFYNGTSMACETFQYGGCMGNGNNFVTEKECLQTCRTVAACNLPIVRGPCRAFIQLWAFDAVKGKCVLFPYGGCQGNGNKFYSEKECREYCGVPGDGDEELLRFSN
B2: Alpha-1-acid glycoprotein 2 (protein)
chain: QIPLCANLVPVPITNATLDRITGKWFYIASAFRNEEYNKSVQEIQATFFYFTPNKTEDTIFLREYQTRQNQCFYNSSYLNVQRENGTVSRYEGGREHVAHLLFLRDTKTLMFGSYLDDEKNWGLSFYADKPETTKEQLGEFYEALDCLCIPRSDVMYTDWKKDKCEPLEKQHEKERKQEEGES
B3: Alpha-2-antiplasmin (protein)
chain: NQEQVSPLTLLKLGNQEPGGQTALKSPPGVCSRDPTPEQTHRLARAMMAFTADLFSLVAQTSTCPNLILSPLSVALALSHLALGAQNHTLQRLQQVLHAGSGPCLPHLLSRLCQDLGPGAFRLAARMYLQKGFPIKEDFLEQSEQLFGAKPVSLTGKQEDDLANINQWVKEATEGKIQEFLSGLPEDTVLLLLNAIHFQGFWRNKFDPSLTQRDSFHLDEQFTVPVEMMQARTYPLRWFLLEQPEIQVAHFPFKNNMSFVVLVPTHFEWNVSQVLANLSWDTLHPPLVWERPTKVRLPKLYLKHQMDLVATLSQLGLQELFQAPDLRGISEQSLVVSGVQHQSTLELSEVGVEAAAATSIAMSRMSLSSFSVNRPFLFFIFEDTTGLPLFVGSVRNPNPSAPRELKEQQDSPGNKDFLQSLKGFPRGDKLFGPDLKLVPPMEEDYPQFGSPK
B4: Zinc-alpha-2-glycoprotein (protein)
chain: QENQDGRYSLTYIYTGLSKHVEDVPAFQALGSLNDLQFFRYNSKDRKSQPMGLWRQVEGMEDWKQDSQLQKAREDIFMETLKDIVEYYNDSNGSHVLQGRFGCEIENNRSSGAFWKYYYDGKDYIEFNKEIPAWVPFDPAAQITKQKWEAEPVYVQRAKAYLEEECPATLRKYLKYSKNILDRQDPPSVVVTSHQAPGEKKKLKCLAYDFYPGKIDVHWTRAGEVQEPELRGDVLHNGNGTYQSWVVVAVPPQDTAPYSCHVQHSSLAQPLVVPWEAS

What follows are molecules tested against T1, Abeta-42 plaque particles (Homo sapiens, UniProt P05067) (assay: Mass spectroscopy proteomics, semi-quantitative binding affinity of serum proteins (plaqueproteome, Table 2)). Conditions: higher number = stronger affinity.
T1 construct: Abeta 1-42
Description: Next to isolate serum derived Abeta-42 plaque particles, the plasma or serum samples obtained from AD subjects were first centrifuged at 5,000 rpm for 5 min and the supernatants were transferred to new centrifuge tubes. Next, the supernatants were diluted in PBS to make 50% of the serum and plasma samples and used for incubation with Abeta-42 plaque oligomers/aggregates. Each assay was performed in 1 mL reaction (800 μL of 50% plasma or serum) and 200 μL (30 μg) of the Abeta-42 aggregates and the mixtures were incubated at 37° C. for 1 hr. To the mixture Thioflavin S dye (120 μg) was added and the sample was incubated for additional 30 min at 37° C. After the incubation, the mixture was directly used for sample acquisition using flow cytometer (FACS ARIA II, BD Biosciences, San Jose, Calif.). After initial detection of Abeta-42 plaque particles in the acquisition blot, gates were drawn in fluorescent dot blot to separately sort and isolate fluorescently labeled Abeta-42 particles.
(§1) For preparing trypsin digested peptide sequences, the isolated plaque particles were centrifuged at 10000 rpm for 5 min and the pellet containing plaque particles was resuspended in 100 μl PBS buffer. Stock solutions of digestion buffer (Ammonium Biocarbonate 50 mM), reducing buffer (DDT 100 mM) and alkylation buffer (lodoaceamide 100 mM) were prepared and stored at −20° C. for up to two months. For trypsin digestion, 100 μl of each plaque particles (2000 of Abeta-42, cholesterol, Tau and alpha-synuclein) were precipitated using cold acetone −80° C. by adding 4X's the volume. The samples were placed on dry ice for 10 min with intermittent vortex. Next, the samples were centrifuged at 4° C. at 10000 G for 10 min. Top layer of acetone was carefully removed from the tube with care not to disturb the plaque particles pellet. The samples were speed-vac for 10 min to ensure all acetone has been boiled away. The plaque particles pellet were reconstituted with 15 μl 8M Urea 100 mM Ammonium bicarbonate stock and 20 μl protease max solution. The protease max solution (Promega, Madison, Wis.) was prepared from stock by adding 60 μl 50 mM Ammonium bicarbonate and used for 3 solution digests (20 μl each). […] The tubes were incubated at 55° C. for 30 minutes. The tubes were then removed and brought to the room temperature followed by addition of 3.2 μl of 1M acrylamide and incubated at room temperature for 30 minutes. To the sample, 63 μL of 50 mM Ammonium bicarbonate was added for a final volume of 98 μl and 2 μl of trypsin (10 μg, Trypsin/Lys C Mix). After mixing the solution with pipet the samples were incubated at 37° C. overnight. After the overnight digest, the tryptic digest were quenched and acidified by adding 10 μl of 50% formic acid/water stock dilution. The samples were centrifuged at 10000 G for 2 minutes and purified using stage tip and used for MS/Mass analysis.
(§2) All MS/MS samples were analyzed using Sequest (Thermo Fisher Scientific, San Jose, Calif., USA; version 1.0). Sequest was set up to search the SUMS_uniprot_Human database (35847 entries) assuming the digestion enzyme strict trypsin. Sequest was searched with a fragment ion mass tolerance of 1.00 Da and a parent ion tolerance of 20 PPM. Propionamide of cysteine was specified in Sequest as a fixed modification. Oxidation of methionine and phospho of serine, threonine and tyrosine were specified in Sequest as variable modifications.
Scaffold (version Scaffold_4.2.1, Proteome Software Inc., Portland, Oreg.) was used to validate MS/MS based peptide and protein identifications. […] Protein probabilities were assigned by the Protein Prophet algorithm (Nesvizhskii, Al et al 2003). […] Proteins sharing significant peptide evidence were grouped into clusters. Proteins were annotated with GO terms from NCBI (downloaded Jan. 17, 2014).

Row | Molecule | Semi-quantitative analysis of proteins binding to different plaque particles: Abeta-42
1 | B1 | 5
2 | B2 | 9
3 | B3 | 0
4 | B4 | 5

These molecules were tested on High Density cholesterol (Chl Large) plaque particles in the same assay as above. Conditions: higher number = stronger affinity.
Set-up: species or system human
Description: (§3) The goal was to isolate plaque particles synthesized in the bio-fluids in a relatively pure form to enable their subsequent use for identification of components that contribute to the plaque formation. In order to isolate cholesterol plaque particles, the plasma or serum samples obtained from atherosclerotic subjects were first centrifuged at 5,000 rpm for 5 min and the supernatants were transferred to new centrifuge tubes. Next, the supernatants were diluted in PBS to make 50% of the serum and used for incubation with cholesterol oligomers/aggregates. Each assay was performed in 1 mL reaction (800 μL of 50% plasma or serum) and 200 μL (30 μg) of the Cholesterol aggregates and the mixtures were incubated at 37° C. for 1 hr After the incubation, the mixture was directly used for sample acquisition using flow cytometer (FACS ARIA II, BD Biosciences, San Jose, Calif.). […] In order to isolate these fractions, three sets of gates were drawn in the acquisition blot to separately sort and isolate High density or high complex cholesterol particles, Low density or low complex cholesterol particles and both High and low density cholesterol particles together.
as §1, §2
(§4) Scaffold (version Scaffold_4.2.1, Proteome Software Inc., Portland, Oreg.) was used to validate MS/MS based peptide and protein identifications. […] Protein probabilities were assigned by the Protein Prophet algorithm (Nesvizhskii, Al et al 2003).

Row | Molecule | Semi-quantitative analysis of proteins binding to different plaque particles: Chl Large
5 | B1 | 5
6 | B2 | 5
7 | B3 | 6
8 | B4 | 4

What follows are molecules tested on Low density cholesterol (Chl small) plaque particles in the same assay as above. Conditions: higher number = stronger affinity.
Set-up: species or system human
Description: as §3, §1, §2, §4

Row | Molecule | Semi-quantitative analysis of proteins binding to different plaque particles: Chl small
9 | B1 | 5
10 | B2 | 7
11 | B3 | 3
12 | B4 | 5

Each molecule was assayed against T2, alpha-synuclein plaque particles (Homo sapiens, UniProt P37840) in the same assay as above. Conditions: higher number = stronger affinity.
T2 construct: 140 amino acids polypeptide
Description: To prepare oligomers/aggregates of human alpha-synuclein (140 amino acids polypeptide), 1 mg of the recombinant alpha-synuclein protein was suspended in 1 mL of PBS and the sample was incubated at 37° C. for 2 hrs. After incubation, all the samples were centrifuged for 5 min. at 5000 rpm to remove precipitate, if any, and the supernatant containing oligomers/aggregates were used in vitro plaque particles formation assay. For detecting alpha-synuclein plaque particles Thioflavin S (Ex/Em=430 nm/550 nm) amyloid binding fluorescent dye (10 μg) was used.
Similarly, to isolate alpha-synuclein plaque particles, diluted plasma or serum samples obtained from AD subjects were used for incubation with alpha-synuclein plaque oligomers/aggregates. Each assay was performed in 1 mL reaction (800 μL of 50% plasma or serum) and 200 μL (30 μg) of the alpha-synuclein aggregates and the mixtures were incubated at 37° C. for 1 hr. To the mixture Thioflavin S dye (120 μg) was added and the sample was incubated for additional 30 min at 37° C. After the incubation, the mixture was directly used for sample acquisition using flow cytometer (FACS ARIA II, BD Biosciences, San Jose, Calif.). After initial detection of alpha-synuclein plaque particles, gates were drawn in the acquisition blot to separately sort and isolate fluorescently labeled alpha-synuclein particles.
as §1, §2
Scaffold (version Scaffold_4.2.1, Proteome Software Inc., Portland, Oreg.) was used to validate MS/MS based peptide and protein identifications.

Row | Molecule | Semi-quantitative analysis of proteins binding to different plaque particles: Synuclein
13 | B1 | 5
14 | B2 | 10
15 | B3 | 5
16 | B4 | 7

These molecules were tested on Tau plaque particles in the same assay as above. Conditions: higher number = stronger affinity.
Set-up: species or system human
Description: For Tau-74 (74-102) (Exon 3/Insert 2 domain) preparation, 1 mg of Tau-74 was suspended in 1 mL of PBS and the sample was incubated at 37° C. for 2 hrs. Similarly for preparing Tau-275 (275-305) (Repeat 2 domain) 1 mg of the peptide was suspended in 1 mL of PBS and the sample was incubated at 37° C. for 2 hrs. After incubation, all the samples were centrifuged for 5 min. at 5000 rpm to remove precipitate, if any, and the supernatant containing oligomers/aggregates were used for in vitro amyloid plaque particles formation assay. For detecting Tau plaque particles, Thioflavin S (Ex/Em=430 nm/550 nm) amyloid binding fluorescent dye (10 μg) was used in the assay.
Next, to isolate Tau plaque particles, as performed for Abeta-42 and Abeta-28 plaque particles isolation, diluted serum samples were used for incubation separately with Tau-45, Tau-74 and Tau-275 oligomers/aggregates. Each assay was performed in 1 mL reaction (800 μL of 50% plasma or serum) and 200 μL (30 μg) of each Tau aggregates and the mixtures were incubated at 37° C. for 1 hr. To the each mixture Thioflavin S dye (120 μg) was added and the sample was incubated for additional 30 min at 37° C. After the incubation, each sample was directly used for sample acquisition using flow cytometer (FACS ARIA II, BD Biosciences, San Jose, Calif.). After initial detection of Tau plaque particles, gates were drawn in the acquisition blot to separately sort and isolate fluorescently labeled Tau plaque particles.
as §1, §2

Row | Molecule | Semi-quantitative analysis of proteins binding to different plaque particles: Tau
17 | B1 | 10
18 | B2 | 9
19 | B3 | 5
20 | B4 | 4
